Data on 15 molecules can be found in paper PMC9783754 (International Journal of Molecular Sciences, 2022).

The chains are these.
B1: Recombinant human S100A12 (natural protein, UniProt P80511 1-92, looked up)
chain: MTKLEEHLEGIVNIFHQYSVRKGHFDTLSKGELKQLLTKELANTIKNIKDKAVIDEIFQGLDANQDEQVDFQEFISLVAIALKAAHYHTHKE
notes: S100A12, human, UniProt ID P80511 (printed in the methods of the database search); monomer and dimer by cross-linking at 4 µM; source: E. coli, purified as previously described
B2: Recombinant human S100A11 (natural protein, UniProt P31949 1-105, looked up)
chain: MAKISSPTETERCIESLIAVFQKYAGKDGYNYTLSKTEFLSFMNTELAAFTKNQKDPGVLDRMMKKLDTNSDGQLDFSEFLNLIGGLAMACHDSFLKAVPSQKRT
notes: S100A11, human, UniProt ID P31949 (printed in the methods of the database search); mainly dimeric by cross-linking at 4 µM; source: E. coli, purified as previously described
B3: Recombinant human S100A16 (natural protein, UniProt Q96FQ6 1-103, looked up)
chain: MSDCYTELEKAVIVLVENFYKYVSKYSLVKNKISKSSFREMLQKELNHMLSDTGNRKAADKLIQNLDANHDGRISFDEYWTLIGGITGPIAKLIHEQEQQSSS
notes: S100A16, human; Ca2+-loaded in the assay; source: E. coli, purified as previously described
B4: Recombinant human S100P (natural protein, UniProt P25815 1-95, looked up)
chain: MTELETAMGMIIDVFSRYSGSEGSTQTLTKGELKVLMEKELPGFLQSGKDKDAVDKLLKDLDANGDAQVDFSEFIVFVAAITSACHKYFEKAGLK
notes: S100P, human; Ca2+-loaded in the assay; source: E. coli, purified as previously described
B5: Recombinant human S100A5 (natural protein, UniProt P33763 1-92, looked up)
chain: METPLEKALTTMVTTFHKYSGREGSKLTLSRKELKELIKKELCLGEMKESSIDDLMKSLDKNSDQEIDFKEYSVFLTMLCMAYNDFFLEDNK
notes: S100A5, human; Ca2+-loaded in the assay; source: E. coli, purified as previously described
B6: Recombinant human S100A4 (natural protein)
chain: not shown
notes: S100A4, human; Ca2+-loaded in the assay; source: E. coli, purified as previously described
B7: Recombinant human S100A8 (natural protein, UniProt P05109 1-93, looked up)
chain: MLTELEKALNSIIDVYHKYSLIKGNFHAVYRDDLKKLLETECPQYIRKKGADVWFKELDINTDGAVNFQEFLILVIKMGVAAHKKSHEESHKE
notes: S100A8, human; Ca2+-loaded in the assay; source: E. coli, purified as previously described
B8: Recombinant human S100A3 (natural protein, UniProt P33764 1-101, looked up)
chain: MARPLEQAVAAIVCTFQEYAGRCGDKYKLCQAELKELLQKELATWTPTEFRECDYNKFMSVLDTNKDCEVDFVEYVRSLACLCLYCHEYFKDCPSEPPCSQ
notes: S100A3, human; Ca2+-loaded in the assay; source: E. coli, purified as previously described
B9: Recombinant human S100A14 (natural protein, UniProt Q9HCY8 1-104, looked up)
chain: MGQCRSANAEDAQEFSDVERAIETLIKNFHQYSVEGGKETLTPSELRDLVTQQLPHLMPSNCGLEEKIANLGSCNDSKLEFRSFWELIGEAAKSVKLERPVRGH
notes: S100A14, human; Ca2+-loaded in the assay; source: E. coli, purified as previously described
B10: Recombinant human S100A2 (natural protein)
chain: not shown
notes: S100A2, human; Ca2+-loaded in the assay; source: E. coli, purified as previously described
B11: Recombinant human S100A7 (natural protein, UniProt P31151 1-101, looked up)
chain: MSNTQAERSIIGMIDMFHKYTRRDDKIEKPSLLTMMKENFPNFLSACDKKGTNYLADVFEKKDKNEDKKIDFSEFLSLLGDIATDYHKQSHGAAPCSGGSQ
notes: S100A7, human; Ca2+-loaded in the assay; source: E. coli, purified as previously described
B12: Recombinant human S100A15 (natural protein, UniProt Q86SG5 1-101, looked up)
chain: B11 chain with R22G, D25G, T52I, N53H, D57T, T84A
notes: Ca2+-loaded in the assay; source: E. coli, purified as previously described
B13: Recombinant human S100A9 (natural protein, UniProt P06702 1-114, looked up)
chain: MTCKMSQLERNIETIINTFHQYSVKLGHPDTLNQGEFKELVRKDLQNFLKKENKNEKVIEHIMEDLDTNADKQLSFEEFIMLMARLTWASHEKMHEGDEGPGHHHKPGLGEGTP
notes: S100A9, human; Ca2+-loaded in the assay; source: E. coli, purified as previously described
B14: Recombinant human S100B (natural protein, UniProt P04271 1-92, looked up)
chain: MSELEKAMVALIDVFHQYSGREGDKHKLKKSELKELINNELSHFLEEIKEQEVVDKVMETLDNDGDGECDFQEFMAFVAMVTTACHEFFEHE
notes: S100B, human; Ca2+-loaded in the assay; source: E. coli, purified as previously described
B15: Recombinant human S100A13 (natural protein, UniProt Q99584 1-98, looked up)
chain: MAAEPLTELEESIETVVTTFFTFARQEGRKDSLSVNEFKELVTQQLPHLLKDVGSLDEKMKSLDVNQDSELKFNEYWRLIGELAKEIRKKKDLKIRKK
notes: S100A13, human, UniProt ID Q99584 (printed in the methods of the database search); source: E. coli, purified as previously described

Changes are numbered by the printed parent chain.

In the first data set the target is T1, Recombinant human sTNF (soluble form of tumor necrosis factor) (human, UniProt P01375 77-233).
T1 construct: additional N-terminal methionine, stated in words; tumor necrosis factor, human, soluble form (157 residues), residues 77-233 of UniProt entry P01375; Monomeric on the SPR chip after long flushing and glycine pH 3.3 washes; multimeric in solution in the fluorimetric titrations and cross-linking; also called TNF-α; TNF ligand superfamily member 2; source: bought: Prospec-Tany Technogene (catalog # …)
T1 sequence (P01375 other isoform, or with tags, fused parts or gaps): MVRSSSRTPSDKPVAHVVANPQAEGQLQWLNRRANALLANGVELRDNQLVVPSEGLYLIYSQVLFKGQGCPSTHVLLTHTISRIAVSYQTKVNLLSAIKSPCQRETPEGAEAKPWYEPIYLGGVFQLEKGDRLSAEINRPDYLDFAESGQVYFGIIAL
The experiment in a line: other fluorescence titration; 280 nM (S100A11) or 0.5 µM (S100A12) multimeric sTNF titrated by Ca2+-bound S100 protein; Trp fluorescence of sTNF, excitation 295/298 nm, intensity at 325 nm; 25 °C; 10 mM HEPES-NaOH, 150 mM NaCl, 1 mM CaCl2, pH 7.4; single site binding model; apparent. The following applies: both partners purified.
For B1, the Kd is 348 ± 50 nM and the “stoichiometry N” value was 1.
For the molecule B2, the Kd worked out at 104 ± 23 nM and the “stoichiometry N” value came to 1.

For the next data set, the target named is T1, Recombinant human sTNF (soluble form of …). The data set is described as follows: SPR; ligand (50 μg/mL sTNF or TNF-β) immobilised on a ProteOn GLH chip by amine coupling; chip flushed with running buffer for two days and several times with 10 mM glycine pH 3.3 to dissociate sTNF multimers (monomeric sTNF); Ca2+-loaded S100 protein as analyte, 10 nM–2 µM; 25 °C; 10 mM HEPES, 150 mM NaCl, 1 mM CaCl2, 0.05% TWEEN 20, pH 7.4; heterogeneous ligand model. The following applies: both partners purified.
For B3, the Kd was over 100000 nM.
For B4, the Kd was over 100000 nM.
In the case of B5, the Kd was over 100000 nM.
Regarding B6, the Kd was over 100000 nM.
In the case of B7, the Kd was over 100000 nM.
With B8, the Kd is over 100000 nM.
Turning to B9, the Kd is over 100000 nM.
Regarding B10, the Kd is over 100000 nM.
On the same count and under the same terms, in the case of B11 it was over 100000 nM; in that of B12, over 100000 nM; in that of B13, over 100000 nM.
Still for that read-out and setting: in the case of B14 it was over 100000 nM.

Another data set has the same target. Described as above. Particulars: both partners purified. The source holds these as a separate data set.
On to B1, for which the “Kd1 (KD, ligand population 1)” value amounted to 2.3 nM; the “Kd2 (KD, ligand population 2)” value was 8.4 nM; the “kd1 (koff, ligand population 1)” value was determined as 0.0018 s⁻¹; the “kd2 (koff, ligand population 2)” value turned out to be 0.0023 s⁻¹.
B2: the “Kd1 (KD, ligand population 1)” value was determined as 28 nM; the “Kd2 (KD, ligand population 2)” value amounted to 695 nM; the “kd1 (koff, ligand population 1)” value turned out to be 0.00018 s⁻¹; the “kd2 (koff, ligand population 2)” value is 0.0084 s⁻¹.
Regarding B15, the “Kd1 (KD, ligand population 1)” value amounted to 2.4 nM; the “Kd2 (KD, ligand population 2)” value was 4.3 nM; the “kd1 (koff, ligand population 1)” value amounted to 0.0009 s⁻¹; the “kd2 (koff, ligand population 2)” value turned out to be 0.0073 s⁻¹.

Another data set deals with the molecule itself. The experiment in a line: cross-linking; 4 µM sTNF and/or S100 protein (sTNF to S100 1:0, 0:1, 1:0.5, 1:1, 1:2), 20 mM EDAC and 5 mM sulfo-NHS, 25 °C, 1.5 h; 10 mM HEPES, 150 mM NaCl, pH 7.4 with 1 mM CaCl2; SDS-PAGE with silver staining.
Conditions: not given
In the case of B1, the “stoichiometry N” value was found to be 2.
As to B2, the “stoichiometry N” value is 2.
